In test [1] the target is fibronectin (Homo sapiens) (UniProt P02751). The test can be described thus: SPR. The note with it: cited from earlier work.
For test [2], the target named is vitronectin (Homo sapiens) (UniProt P04004). The test can be described thus: SPR. The note with it: cited from earlier work.
Test [3] has as its target fibrinogen (Homo sapiens) (UniProt P02671). The test can be described thus: SPR. The note with it: cited from earlier work.
The target of another test is T1, collagen I (UniProt P02452 162-1218; P08123 80-1119).
T1 construct: collagen alpha-1(I) chain; collagen alpha-2(I) chain; Named only as collagen I; also called Cn I; Cn l
The test can be described thus: ELISA; matrix component (0.25 ug/well in 0.1 M Na2CO3, overnight 4 C) immobilised on polystyrene plates; Emp forms 0-1.5 uM added for 1 h at RT, PBST washes; detected with polyclonal anti-Emp IgG and AP-conjugated anti-rabbit IgG; KD from steady-state curves, one-site binding model. The note with it: both partners purified. (In general: An ELISA detects its analyte on a solid surface through an enzyme-linked reagent.)

A further test deals with fibronectin (UniProt P02751 32-2477). The description is as above. The settings on record: both partners purified.
The next test addresses T2, fibrinogen (UniProt P02671-2 20-644; P02675 31-491; P02679-2 27-437).
T2 construct: fibrinogen alpha chain; fibrinogen beta chain; fibrinogen gamma chain; Named only as fibrinogen; also called Fg
T2 sequence (looked up) 1: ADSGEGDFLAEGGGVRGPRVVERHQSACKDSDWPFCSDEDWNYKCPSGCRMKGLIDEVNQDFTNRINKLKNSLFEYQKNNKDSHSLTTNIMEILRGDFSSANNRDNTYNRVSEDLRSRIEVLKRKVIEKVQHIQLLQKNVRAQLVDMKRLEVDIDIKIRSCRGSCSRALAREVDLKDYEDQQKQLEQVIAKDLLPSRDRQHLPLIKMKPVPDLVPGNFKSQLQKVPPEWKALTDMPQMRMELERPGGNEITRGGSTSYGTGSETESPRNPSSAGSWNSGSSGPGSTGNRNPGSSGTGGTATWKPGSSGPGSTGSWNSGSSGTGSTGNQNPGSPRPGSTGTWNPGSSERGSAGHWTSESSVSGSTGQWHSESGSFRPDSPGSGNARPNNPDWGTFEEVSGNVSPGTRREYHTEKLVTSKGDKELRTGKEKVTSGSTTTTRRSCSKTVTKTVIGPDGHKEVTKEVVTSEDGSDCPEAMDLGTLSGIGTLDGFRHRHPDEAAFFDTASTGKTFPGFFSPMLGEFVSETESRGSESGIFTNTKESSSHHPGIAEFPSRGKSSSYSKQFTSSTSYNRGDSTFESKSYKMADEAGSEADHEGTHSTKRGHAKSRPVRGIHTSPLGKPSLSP
T2 sequence (looked up) 2: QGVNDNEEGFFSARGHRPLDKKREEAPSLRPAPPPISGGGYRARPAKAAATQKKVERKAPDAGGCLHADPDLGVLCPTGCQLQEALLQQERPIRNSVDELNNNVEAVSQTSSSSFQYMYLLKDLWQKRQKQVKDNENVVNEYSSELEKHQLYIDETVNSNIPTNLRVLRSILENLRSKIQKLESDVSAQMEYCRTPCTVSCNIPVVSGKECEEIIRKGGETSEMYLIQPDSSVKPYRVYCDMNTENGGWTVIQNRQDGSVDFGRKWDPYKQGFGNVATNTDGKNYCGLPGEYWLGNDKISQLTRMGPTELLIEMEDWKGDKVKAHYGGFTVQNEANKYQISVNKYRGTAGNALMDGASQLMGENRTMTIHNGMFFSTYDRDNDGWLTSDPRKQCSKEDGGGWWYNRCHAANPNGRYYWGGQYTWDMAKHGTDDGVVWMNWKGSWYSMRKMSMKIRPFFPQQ
T2 sequence (looked up) 3: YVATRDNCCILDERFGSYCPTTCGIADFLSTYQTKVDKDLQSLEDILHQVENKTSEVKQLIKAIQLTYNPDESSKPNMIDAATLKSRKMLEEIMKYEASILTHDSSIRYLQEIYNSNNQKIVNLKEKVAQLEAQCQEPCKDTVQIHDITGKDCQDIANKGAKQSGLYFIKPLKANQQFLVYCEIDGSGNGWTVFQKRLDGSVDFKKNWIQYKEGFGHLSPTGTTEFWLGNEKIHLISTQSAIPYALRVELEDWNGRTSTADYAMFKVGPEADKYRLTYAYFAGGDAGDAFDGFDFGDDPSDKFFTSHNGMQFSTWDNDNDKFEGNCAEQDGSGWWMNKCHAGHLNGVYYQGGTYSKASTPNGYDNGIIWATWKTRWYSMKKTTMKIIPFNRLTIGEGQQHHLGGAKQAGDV
The test is described as above. The settings on record: both partners purified.

In the next test the target is vitronectin. The description is as above.

This passage reports Kd results from publication PMC5651841, “The Staphylococcus aureus extracellular matrix protein (Emp) has a fibrous structure and binds to different extracellular matrices” (Scientific Reports, 2017).

Sequence of fibronectin (P02751 32-2477): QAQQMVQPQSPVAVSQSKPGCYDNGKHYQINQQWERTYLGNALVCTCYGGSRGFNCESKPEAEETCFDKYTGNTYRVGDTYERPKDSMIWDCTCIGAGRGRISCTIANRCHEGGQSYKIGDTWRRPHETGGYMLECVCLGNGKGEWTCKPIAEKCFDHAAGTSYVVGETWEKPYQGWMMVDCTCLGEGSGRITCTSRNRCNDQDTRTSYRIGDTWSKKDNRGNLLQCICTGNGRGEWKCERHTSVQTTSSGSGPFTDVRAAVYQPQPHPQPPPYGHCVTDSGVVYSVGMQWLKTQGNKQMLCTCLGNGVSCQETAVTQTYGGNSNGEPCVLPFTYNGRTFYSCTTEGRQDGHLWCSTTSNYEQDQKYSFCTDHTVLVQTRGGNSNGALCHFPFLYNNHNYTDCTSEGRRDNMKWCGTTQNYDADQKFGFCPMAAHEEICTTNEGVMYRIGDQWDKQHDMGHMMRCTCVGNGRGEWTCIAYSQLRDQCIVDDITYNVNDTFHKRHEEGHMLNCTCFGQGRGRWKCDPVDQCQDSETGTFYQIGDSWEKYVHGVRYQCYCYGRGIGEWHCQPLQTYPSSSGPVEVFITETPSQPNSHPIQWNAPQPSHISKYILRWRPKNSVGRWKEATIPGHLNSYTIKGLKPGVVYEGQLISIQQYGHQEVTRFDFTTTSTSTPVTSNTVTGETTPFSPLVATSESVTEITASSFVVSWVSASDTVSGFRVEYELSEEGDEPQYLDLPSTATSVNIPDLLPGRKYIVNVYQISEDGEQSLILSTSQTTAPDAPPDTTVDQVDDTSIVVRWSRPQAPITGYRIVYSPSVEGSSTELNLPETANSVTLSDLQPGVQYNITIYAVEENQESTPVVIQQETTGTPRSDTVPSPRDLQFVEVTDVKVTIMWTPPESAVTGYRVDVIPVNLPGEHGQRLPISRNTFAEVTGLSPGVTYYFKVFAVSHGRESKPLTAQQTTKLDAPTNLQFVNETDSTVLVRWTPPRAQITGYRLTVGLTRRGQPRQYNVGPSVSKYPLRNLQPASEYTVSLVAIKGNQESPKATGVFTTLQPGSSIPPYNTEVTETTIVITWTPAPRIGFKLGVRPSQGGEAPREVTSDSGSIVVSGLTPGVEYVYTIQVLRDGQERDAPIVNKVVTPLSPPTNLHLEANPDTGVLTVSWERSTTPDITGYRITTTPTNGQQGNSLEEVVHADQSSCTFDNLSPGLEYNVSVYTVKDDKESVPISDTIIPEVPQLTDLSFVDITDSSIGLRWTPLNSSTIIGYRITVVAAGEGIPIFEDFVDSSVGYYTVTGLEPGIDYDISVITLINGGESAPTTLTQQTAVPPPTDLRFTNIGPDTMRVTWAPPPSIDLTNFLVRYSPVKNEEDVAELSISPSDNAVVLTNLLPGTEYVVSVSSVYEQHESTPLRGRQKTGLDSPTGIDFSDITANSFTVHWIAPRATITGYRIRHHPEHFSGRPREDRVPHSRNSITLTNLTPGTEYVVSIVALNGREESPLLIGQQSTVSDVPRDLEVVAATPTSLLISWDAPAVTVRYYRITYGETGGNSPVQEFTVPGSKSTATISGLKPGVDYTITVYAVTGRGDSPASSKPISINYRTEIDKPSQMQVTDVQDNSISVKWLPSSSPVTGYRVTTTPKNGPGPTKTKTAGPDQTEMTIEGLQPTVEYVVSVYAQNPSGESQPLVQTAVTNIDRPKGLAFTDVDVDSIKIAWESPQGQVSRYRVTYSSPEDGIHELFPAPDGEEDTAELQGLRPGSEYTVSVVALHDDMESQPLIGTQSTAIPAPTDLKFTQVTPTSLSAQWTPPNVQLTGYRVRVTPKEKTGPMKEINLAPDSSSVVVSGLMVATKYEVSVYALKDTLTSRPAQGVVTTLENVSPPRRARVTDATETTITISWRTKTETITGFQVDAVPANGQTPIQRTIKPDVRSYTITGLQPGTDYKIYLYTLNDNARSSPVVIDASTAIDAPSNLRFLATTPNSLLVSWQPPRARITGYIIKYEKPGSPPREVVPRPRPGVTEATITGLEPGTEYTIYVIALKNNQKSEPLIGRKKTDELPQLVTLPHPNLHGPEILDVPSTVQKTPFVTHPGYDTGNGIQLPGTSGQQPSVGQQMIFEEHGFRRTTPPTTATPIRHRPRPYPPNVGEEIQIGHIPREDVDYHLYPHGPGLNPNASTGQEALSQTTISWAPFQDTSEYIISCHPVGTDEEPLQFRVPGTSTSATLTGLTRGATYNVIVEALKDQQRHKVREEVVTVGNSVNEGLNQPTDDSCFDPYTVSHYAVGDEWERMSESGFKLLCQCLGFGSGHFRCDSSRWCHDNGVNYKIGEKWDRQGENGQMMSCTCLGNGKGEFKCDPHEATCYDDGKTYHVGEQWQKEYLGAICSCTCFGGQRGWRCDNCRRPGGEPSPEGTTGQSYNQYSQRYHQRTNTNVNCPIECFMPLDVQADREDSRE
T1 sequence (P02452 162-1218, chain 1 of 2): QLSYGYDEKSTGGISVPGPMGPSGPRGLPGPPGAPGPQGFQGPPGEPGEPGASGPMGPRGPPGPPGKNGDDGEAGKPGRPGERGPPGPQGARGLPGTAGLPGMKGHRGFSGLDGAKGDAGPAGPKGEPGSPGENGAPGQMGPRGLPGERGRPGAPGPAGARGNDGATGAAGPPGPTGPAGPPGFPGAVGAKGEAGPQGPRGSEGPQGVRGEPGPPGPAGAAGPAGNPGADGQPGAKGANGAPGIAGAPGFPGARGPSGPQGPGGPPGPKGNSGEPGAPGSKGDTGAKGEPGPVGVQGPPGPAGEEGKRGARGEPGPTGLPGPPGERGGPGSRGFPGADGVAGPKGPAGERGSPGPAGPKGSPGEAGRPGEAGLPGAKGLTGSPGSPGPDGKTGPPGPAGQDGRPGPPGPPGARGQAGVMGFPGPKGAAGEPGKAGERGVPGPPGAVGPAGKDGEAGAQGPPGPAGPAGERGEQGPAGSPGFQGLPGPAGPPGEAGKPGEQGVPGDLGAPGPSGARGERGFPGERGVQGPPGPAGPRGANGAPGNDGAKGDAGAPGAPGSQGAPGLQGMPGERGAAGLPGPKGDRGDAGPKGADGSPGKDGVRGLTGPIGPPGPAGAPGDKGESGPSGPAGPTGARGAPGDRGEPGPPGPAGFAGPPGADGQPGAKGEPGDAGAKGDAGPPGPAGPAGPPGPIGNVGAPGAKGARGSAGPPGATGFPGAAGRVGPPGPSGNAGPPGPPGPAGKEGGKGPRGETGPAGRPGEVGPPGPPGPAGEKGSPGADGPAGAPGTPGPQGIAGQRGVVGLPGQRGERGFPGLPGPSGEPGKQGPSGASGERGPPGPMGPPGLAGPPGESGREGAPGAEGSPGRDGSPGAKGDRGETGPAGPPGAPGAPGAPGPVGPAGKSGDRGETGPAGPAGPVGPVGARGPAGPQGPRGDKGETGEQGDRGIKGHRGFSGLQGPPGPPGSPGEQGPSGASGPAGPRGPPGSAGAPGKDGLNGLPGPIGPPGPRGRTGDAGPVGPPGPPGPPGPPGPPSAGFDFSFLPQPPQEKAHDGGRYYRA
T1 sequence (P08123 80-1119, chain 2 of 2): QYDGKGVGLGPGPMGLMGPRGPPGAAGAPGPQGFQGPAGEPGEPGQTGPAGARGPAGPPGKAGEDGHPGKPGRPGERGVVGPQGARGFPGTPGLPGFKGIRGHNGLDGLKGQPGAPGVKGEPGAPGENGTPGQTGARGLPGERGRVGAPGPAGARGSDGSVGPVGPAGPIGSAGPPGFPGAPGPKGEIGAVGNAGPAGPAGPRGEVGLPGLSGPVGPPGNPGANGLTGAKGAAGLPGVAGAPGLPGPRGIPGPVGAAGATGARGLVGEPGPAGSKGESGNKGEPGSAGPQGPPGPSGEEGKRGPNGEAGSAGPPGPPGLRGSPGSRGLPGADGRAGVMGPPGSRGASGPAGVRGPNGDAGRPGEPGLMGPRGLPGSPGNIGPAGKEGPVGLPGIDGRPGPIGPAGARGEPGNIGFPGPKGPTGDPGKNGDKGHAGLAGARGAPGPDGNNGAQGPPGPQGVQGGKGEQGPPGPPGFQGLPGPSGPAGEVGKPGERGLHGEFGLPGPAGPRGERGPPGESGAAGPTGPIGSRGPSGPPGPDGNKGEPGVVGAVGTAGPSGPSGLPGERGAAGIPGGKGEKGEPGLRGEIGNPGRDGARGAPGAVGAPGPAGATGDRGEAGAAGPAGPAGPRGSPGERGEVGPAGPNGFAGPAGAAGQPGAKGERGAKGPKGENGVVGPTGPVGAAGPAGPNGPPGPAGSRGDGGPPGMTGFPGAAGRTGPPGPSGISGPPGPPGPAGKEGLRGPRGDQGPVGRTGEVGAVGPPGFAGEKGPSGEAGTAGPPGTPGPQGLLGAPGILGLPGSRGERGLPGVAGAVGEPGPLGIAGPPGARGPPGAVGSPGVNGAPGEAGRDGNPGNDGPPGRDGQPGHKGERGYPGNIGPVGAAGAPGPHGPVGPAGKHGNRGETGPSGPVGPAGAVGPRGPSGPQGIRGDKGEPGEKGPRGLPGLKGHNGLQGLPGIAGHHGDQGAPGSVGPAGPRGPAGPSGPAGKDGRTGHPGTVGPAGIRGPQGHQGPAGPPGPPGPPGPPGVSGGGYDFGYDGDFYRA
Sequence of vitronectin (P04004 20-478): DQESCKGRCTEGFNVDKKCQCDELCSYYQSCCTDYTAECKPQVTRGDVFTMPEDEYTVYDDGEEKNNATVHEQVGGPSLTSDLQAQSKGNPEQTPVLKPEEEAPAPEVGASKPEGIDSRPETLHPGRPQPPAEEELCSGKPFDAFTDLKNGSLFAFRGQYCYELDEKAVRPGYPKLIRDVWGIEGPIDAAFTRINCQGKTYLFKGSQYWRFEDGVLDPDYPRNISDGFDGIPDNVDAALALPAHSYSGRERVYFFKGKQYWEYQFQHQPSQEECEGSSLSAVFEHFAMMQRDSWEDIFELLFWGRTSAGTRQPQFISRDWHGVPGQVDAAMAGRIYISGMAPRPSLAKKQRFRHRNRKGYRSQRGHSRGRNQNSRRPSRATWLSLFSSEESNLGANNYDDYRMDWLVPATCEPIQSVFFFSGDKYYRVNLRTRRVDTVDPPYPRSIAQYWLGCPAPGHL
Sequence of fibronectin (Homo sapiens) (P02751 32-2477): as the sequence (P02751 32-2477) above
Sequence of vitronectin (Homo sapiens) (P04004 399-478): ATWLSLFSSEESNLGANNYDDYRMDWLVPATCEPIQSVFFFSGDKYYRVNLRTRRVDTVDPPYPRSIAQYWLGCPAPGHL

Consider Emp (from UniProt Q7A6P4), for which the Kd (commonly the equilibrium constant for the complex coming apart) in test [1] is 21 nM; in test [2], 0.122 nM; in test [3], 91 nM.

B1: Emp2+3 (combination of Emp2 and Emp3; N-truncated Emp) (domain or fragment)
chain: YKEINNRVNVATNNPASQQVDKHFVAKGPEVNRFITQNKVNHHFITTQTHYKKVITSYKSTHVHKHVNHAKDSINKHFIVKPSESPRYTHPSQSLIIKHHFAVPGYHAHKFVTPGHASIKINHFCVVPQINSFKVIPPYGHNSHRMHVPSFQNNTTATHQNAKVNKAYDYKYFYSYKVVKGVKKYFSFSQSNGYKIGKPSLNIKNVNYQYAVPSYSPTHYVPEFKGSLPAPRV
notes: limits worked out from these positions and count on the precursor; source: E. coli (TG1 transformants, plasmid pQemp2 + 3), purified (Ni-NTA in 8 M urea, solubilized by stepwise dialysis)
B1: the Kd with collagen I was found to be 207 ± 44 nM; with fibronectin it was 404 ± 95 nM; with fibrinogen it was 556 ± 115 nM; with vitronectin, 200 nM.

B2: Emp1+2 (combination of Emp1 and Emp2) (domain or fragment)
chain: ASVTESVDKKFVVPESGINKIIPAYDEFKNSPKVNVSNLTDNKNFVASEDKLNKIADSSAASKIVDKNFVVPESKLGNIVPEYKEINNRVNVATNNPASQQVDKHFVAKGPEVNRFITQNKVNHHFITTQTHYKKVITSYKSTHVHKHVNHAKDSINKHFIVKPSESPRYTHPSQSLIIKHHFAVPGYHAH
notes: limits worked out from these positions and count on the precursor; source: E. coli (TG1 transformants, plasmid pQemp1 + 2), purified (Ni-NTA in 8 M urea, solubilized by stepwise dialysis)
B2: the Kd was 31 ± 5 nM in the test with collagen I, 3 ± 2 nM with fibronectin, 14 ± 3 nM in the test with fibrinogen and 9 nM with vitronectin.

B3: Emp3 (C-terminal fragment of Emp) (domain or fragment)
chain: FAVPGYHAHKFVTPGHASIKINHFCVVPQINSFKVIPPYGHNSHRMHVPSFQNNTTATHQNAKVNKAYDYKYFYSYKVVKGVKKYFSFSQSNGYKIGKPSLNIKNVNYQYAVPSYSPTHYVPEFKGSLPAPRV
notes: primers EmpFor3UA (+622) and EmpRev3UA (+1024, holds the stop codon) relative to ATG; limits worked out from these positions and count on the precursor; source: E. coli (TG1 transformants, plasmid pQemp3), purified (Ni-NTA in 8 M urea, solubilized by stepwise dialysis)
B3: the Kd with collagen I was 32 ± 7 nM; with fibronectin, 311 ± 79 nM; in the test with fibrinogen it was 756 ± 224 nM; with vitronectin, 449 nM.

B4: full-length Emp protein (extracellular matrix protein Emp of Staphylococcus aureus, without the signal peptide) (natural protein)
chain: SVTESVDKKFVVPESGINKIIPAYDEFKNSPKVNVSNLTDNKNFVASEDKLNKIADSSAASKIVDKNFVVPESKLGNIVPEYKEINNRVNVATNNPASQQVDKHFVAKGPEVNRFITQNKVNHHFITTQTHYKKVITSYKSTHVHKHVNHAKDSINKHFIVKPSESPRYTHPSQSLIIKHHFAVPGYHAHKFVTPGHASIKINHFCVVPQINSFKVIPPYGHNSHRMHVPSFQNNTTATHQNAKVNKAYDYKYFYSYKVVKGVKKYFSFSQSNGYKIGKPSLNIKNVNYQYAVPSYSPTHYVPEFKGSLPAPRV
notes: gene of 1,023 nucleotides; numbers count on: the protein without signal peptide and without His-tag; The vector (printed pQ30-UA, Qiagen) probably adds an N-terminal His6 (surmised); Primer EmpFor1UA starts at nt +76 (codon 26), which would give 315 residues against the printed 314; also called EmpFL; source: E. coli (TG1 transformants, plasmid pQemp), purified (Ni-NTA in 8 M urea, solubilized by …)
As to B4, the Kd with collagen I is 27 ± 5 nM; with fibronectin, 43 ± 11 nM; with fibrinogen, 70 ± 1 nM; with vitronectin, 34 nM.

B5: Emp2 (central fragment of Emp) (domain or fragment)
chain: YKEINNRVNVATNNPASQQVDKHFVAKGPEVNRFITQNKVNHHFITTQTHYKKVITSYKSTHVHKHVNHAKDSINKHFIVKPSESPRYTHPSQSLIIKHHFAVPGYHAH
notes: primers EmpFor2UA (+322) and EmpRev2UA (+648) relative to ATG; limits worked out from these positions and count on the precursor; source: E. coli (TG1 transformants, plasmid pQemp2), purified (Ni-NTA in 8 M urea, solubilized by stepwise dialysis)
As to B5, the Kd is 13 ± 6 nM with collagen I, 8 ± 3 nM with fibronectin, 9 ± 2.6 nM in the test with fibrinogen and 18 nM with vitronectin.
